4 molecules from patent US20200397917, “ENGINEERED DNA BINDING PROTEINS” (Encoded Therapeutics, Inc., published 2020) can be followed below.

For data set [1], the target named is EGR1-based eTF, 9 ZF (SCN1A) (synthetic). As to the kind of experiment: cell_activity; endogenous SCN1A, HEK293. The method, then: (§1) HEK293 cells were cultured per standard methods, and transfected (FuGene HD, Promega) with 3 ug of each tested activator, or an EGFP control. 48h following transfection, cells were collected and RNA was isolated (Qiagen RNeasy Mini kit), and DNase treated. RNA (3 ug) was reverse transcribed using OligoDT primers (Superscript IV, Invitrogen). cDNA samples were analyzed by qPCR using Phusion Polymerase (New England Biolabs) and SYBR Green I: (30s at 98° C., 40×[10 sec at 98° C., 15 sec at 68° C., 15 sec at 72° C.]). Primers against human SCN1A (5′-[…]-3′ (SEQ ID NO: 190); 5′-[…]-3′ (SEQ ID NO: 191)) were used to quantify levels of reporter-driven EGFP transcript, and relative levels of EGFP expression were determined by the delta-delta Ct method with GAPDH as a reference gene (5′-[…]-3′ (SEQ ID NO: 192); 5′-[…]-3′ (SEQ ID NO: 193)). Data are presented as fold changes relative to the control condition. SEQ ID NOs: 6, 7, and 9 are eTFs derived from human EGR1 protein and are engineered to bind to a target site near or at endogenous SCN1A gene, wherein the target site is SEQ ID NOs: 35-37.
Sequence of EGR1-based eTF, 9 ZF (SCN1A) (synthetic) (chain, as listed by the source): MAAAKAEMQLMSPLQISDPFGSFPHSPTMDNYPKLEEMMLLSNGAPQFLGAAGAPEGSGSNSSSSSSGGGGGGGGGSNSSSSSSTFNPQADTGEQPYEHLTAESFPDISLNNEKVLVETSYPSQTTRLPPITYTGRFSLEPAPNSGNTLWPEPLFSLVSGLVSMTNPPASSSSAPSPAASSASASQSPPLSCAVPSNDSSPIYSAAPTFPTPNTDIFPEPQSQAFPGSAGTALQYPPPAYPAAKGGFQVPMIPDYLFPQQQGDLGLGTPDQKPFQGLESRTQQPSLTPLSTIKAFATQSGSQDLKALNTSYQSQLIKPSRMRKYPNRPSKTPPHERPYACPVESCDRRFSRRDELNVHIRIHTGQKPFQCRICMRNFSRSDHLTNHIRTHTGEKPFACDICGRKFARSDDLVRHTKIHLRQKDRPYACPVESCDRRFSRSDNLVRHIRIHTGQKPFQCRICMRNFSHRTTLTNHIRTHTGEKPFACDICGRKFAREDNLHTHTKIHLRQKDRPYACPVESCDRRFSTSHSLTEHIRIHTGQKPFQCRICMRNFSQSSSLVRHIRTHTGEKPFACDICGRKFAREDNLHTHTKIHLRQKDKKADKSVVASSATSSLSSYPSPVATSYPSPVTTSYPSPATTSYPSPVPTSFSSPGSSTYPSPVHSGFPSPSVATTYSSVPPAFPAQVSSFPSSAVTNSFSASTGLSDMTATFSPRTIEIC

In the next data set the target is EGR1-based eTF, 3 ZF (synthetic, UniProt P18146 SEQ:1-543). As to the kind of experiment: cell_activity; EGFP reporter. The method, then: (§2) HEK293 cells were cultured per standard methods, and co-transfected (FuGene HD, Promega) with 1.5 ug of a reporter plasmid consisting of EGFP under the control of a tetracycline-responsive element (TRE) tight promoter, and 1.5 ug of each tested activator, or empty vector control (pUC57). 48h following transfection, cells were imaged using an epifluorescent microscope for GFP expression. The cells were collected and RNA was isolated (Qiagen RNeasy Mini kit), and DNase treated. RNA (3 ug) was reverse transcribed using OligoDT primers (Superscript IV, Invitrogen). cDNA samples were analyzed by qPCR using Phusion Polymerase (New England Biolabs) and SYBR Green I: (30s at 98° C., 40×[10 sec at 98° C., 15 sec at 65° C., 15 sec at 72° C.]). Primers against EGFP (5′-[…]-3′ (SEQ ID NO: 369); 5′-[…]-3′ (SEQ ID NO: 370)) were used to quantify levels of reporter-driven EGFP transcript, and relative levels of EGFP expression were determined by the delta-delta Ct method with GAPDH as a reference gene (5′-[…]-3′ (SEQ ID NO: 192); 5′-[…]-3′ (SEQ ID NO: 193)).
Sequence of EGR1-based eTF, 3 ZF (P18146 other isoform, or with tags, fused parts or gaps): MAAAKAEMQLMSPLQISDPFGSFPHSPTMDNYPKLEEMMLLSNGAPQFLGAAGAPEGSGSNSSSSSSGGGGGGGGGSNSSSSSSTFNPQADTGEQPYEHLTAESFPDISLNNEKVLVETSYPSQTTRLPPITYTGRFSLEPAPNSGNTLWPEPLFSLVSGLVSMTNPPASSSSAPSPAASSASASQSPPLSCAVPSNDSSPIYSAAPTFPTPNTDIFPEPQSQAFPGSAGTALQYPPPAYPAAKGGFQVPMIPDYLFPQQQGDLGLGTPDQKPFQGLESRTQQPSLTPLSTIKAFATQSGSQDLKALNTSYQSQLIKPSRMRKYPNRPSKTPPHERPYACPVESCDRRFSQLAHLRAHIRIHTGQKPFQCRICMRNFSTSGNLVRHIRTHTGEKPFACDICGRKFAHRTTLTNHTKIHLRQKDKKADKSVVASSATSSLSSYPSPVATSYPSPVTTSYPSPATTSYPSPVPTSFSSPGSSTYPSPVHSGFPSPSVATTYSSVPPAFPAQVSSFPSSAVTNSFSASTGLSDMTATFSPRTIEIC
(§3) Data are presented as fold changes relative to the control condition.

Another data set has as its target ZF DBD-CITED2 (synthetic). Kind of data set: cell_activity; versus reporter alone. The conditions noted are these: tags: NLS; CITED2. The method, then:
as §2, §3

The target in another data set is ZF DBD-CITED4 (synthetic). As to the kind of experiment: cell_activity; versus reporter alone. The conditions noted are these: tags: NLS; CITED4. How it is done:
as §2, §3

The target in data set [2] is EGR1-based eTF, synthetic 6-ZF DBD (synthetic). As to the kind of experiment: cell_activity; EGFP reporter. The method, then: as §2, §3
Sequence of EGR1-based eTF, synthetic 6-ZF DBD (synthetic) (chain, as listed by the source): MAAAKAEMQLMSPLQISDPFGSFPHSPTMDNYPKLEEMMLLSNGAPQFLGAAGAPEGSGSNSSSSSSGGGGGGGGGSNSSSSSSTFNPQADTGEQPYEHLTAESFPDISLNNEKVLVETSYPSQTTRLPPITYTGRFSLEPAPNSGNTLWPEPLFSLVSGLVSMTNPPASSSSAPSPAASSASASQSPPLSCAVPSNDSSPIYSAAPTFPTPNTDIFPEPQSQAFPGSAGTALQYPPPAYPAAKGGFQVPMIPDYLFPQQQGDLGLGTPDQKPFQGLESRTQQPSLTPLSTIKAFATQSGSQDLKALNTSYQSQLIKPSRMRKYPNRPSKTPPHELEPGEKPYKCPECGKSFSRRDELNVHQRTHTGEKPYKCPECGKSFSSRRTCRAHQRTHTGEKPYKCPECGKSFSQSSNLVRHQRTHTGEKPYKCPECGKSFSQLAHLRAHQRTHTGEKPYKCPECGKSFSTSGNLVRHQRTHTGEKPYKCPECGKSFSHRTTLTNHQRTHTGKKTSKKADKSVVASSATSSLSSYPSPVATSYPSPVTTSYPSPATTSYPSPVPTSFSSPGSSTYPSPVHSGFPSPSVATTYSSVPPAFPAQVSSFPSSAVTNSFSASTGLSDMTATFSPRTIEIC
In data set [3] the target is EGR1-based eTF, duplicated 6 ZF (TRE) (synthetic). Kind of data set: cell_activity; EGFP reporter. How it is done:
as §2, §3

In a further data set the target is ZF DBD-VP64 (synthetic). Kind of data set: cell_activity; EGFP reporter; about 40-fold in FIG. 33B. The conditions noted are these: tags: NLS. The method, then:
as §2, §3

Data set [4] concerns the target EGR3-based eTF, 6 ZF (TRE) (synthetic). Kind of data set: cell_activity; versus control SEQ 187. The method, then:
as §2, §3

Data set [5] deals with EGR1-based eTF, 6 ZF (SCN1A) (synthetic). Kind of data set: cell_activity; endogenous SCN1A, HEK293. The method, then:
as §1

Sequence of EGR3-based eTF, 6 ZF (TRE) (synthetic) (chain, as listed by the source): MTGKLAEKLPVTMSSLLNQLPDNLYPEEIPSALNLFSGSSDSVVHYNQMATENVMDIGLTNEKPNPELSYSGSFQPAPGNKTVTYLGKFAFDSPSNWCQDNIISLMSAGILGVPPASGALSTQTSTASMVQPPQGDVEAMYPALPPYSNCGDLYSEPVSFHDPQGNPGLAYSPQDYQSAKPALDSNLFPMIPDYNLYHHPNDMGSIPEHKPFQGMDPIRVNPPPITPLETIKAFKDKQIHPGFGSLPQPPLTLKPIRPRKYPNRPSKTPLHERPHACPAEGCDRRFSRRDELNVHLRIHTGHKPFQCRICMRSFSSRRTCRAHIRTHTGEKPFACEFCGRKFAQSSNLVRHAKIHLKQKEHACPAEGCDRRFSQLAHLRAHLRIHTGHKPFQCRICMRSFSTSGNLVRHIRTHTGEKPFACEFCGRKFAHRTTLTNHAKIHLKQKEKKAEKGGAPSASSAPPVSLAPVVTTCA
Sequence of EGR1-based eTF, duplicated 6 ZF (TRE) (synthetic) (chain, as listed by the source): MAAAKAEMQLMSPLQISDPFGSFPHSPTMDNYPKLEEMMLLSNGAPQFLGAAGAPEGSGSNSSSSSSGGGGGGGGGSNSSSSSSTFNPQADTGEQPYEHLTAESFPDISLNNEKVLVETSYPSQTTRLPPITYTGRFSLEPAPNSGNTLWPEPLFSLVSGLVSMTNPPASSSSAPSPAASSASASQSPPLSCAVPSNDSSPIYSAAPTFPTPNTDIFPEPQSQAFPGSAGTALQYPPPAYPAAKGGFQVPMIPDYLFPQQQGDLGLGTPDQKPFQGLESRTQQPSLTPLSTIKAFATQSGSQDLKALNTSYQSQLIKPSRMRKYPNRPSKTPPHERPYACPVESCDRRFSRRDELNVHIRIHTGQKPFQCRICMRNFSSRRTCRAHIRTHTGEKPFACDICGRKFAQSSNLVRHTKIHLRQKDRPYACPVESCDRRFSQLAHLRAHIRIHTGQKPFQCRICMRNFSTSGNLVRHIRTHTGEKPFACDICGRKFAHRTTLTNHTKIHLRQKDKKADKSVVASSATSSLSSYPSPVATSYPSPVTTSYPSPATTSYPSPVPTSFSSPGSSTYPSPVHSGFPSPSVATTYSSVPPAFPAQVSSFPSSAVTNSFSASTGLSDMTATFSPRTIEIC
Sequence of EGR1-based eTF, 6 ZF (SCN1A) (synthetic) (chain, as listed by the source): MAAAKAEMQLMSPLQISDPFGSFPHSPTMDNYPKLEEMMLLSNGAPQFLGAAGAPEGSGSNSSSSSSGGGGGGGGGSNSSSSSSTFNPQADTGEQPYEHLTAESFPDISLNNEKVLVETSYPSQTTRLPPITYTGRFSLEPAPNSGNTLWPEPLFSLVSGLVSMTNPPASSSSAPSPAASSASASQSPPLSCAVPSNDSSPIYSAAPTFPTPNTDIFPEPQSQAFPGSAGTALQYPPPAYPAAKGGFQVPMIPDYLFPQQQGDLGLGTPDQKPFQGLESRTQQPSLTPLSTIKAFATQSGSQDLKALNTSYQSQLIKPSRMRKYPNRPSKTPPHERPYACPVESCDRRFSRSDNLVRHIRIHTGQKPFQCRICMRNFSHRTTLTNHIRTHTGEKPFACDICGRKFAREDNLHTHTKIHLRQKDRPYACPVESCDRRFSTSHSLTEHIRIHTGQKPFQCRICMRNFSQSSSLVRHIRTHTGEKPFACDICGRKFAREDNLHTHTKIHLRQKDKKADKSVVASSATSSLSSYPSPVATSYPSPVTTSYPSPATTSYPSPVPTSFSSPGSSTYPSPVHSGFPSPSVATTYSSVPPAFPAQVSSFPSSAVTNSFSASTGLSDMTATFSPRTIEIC
Sequence of ZF DBD-CITED4 (synthetic) (chain, as listed by the source): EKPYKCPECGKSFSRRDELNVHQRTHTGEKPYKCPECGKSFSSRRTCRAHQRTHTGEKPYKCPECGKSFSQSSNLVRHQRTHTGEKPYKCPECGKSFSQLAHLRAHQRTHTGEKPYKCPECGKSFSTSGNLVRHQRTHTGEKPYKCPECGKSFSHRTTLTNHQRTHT

B1: SCN1A site 37 (dsDNA)
DNA 1: TAGGTACCATAGAGTGAGGCGAGGATG
DNA 2: CATCCTCGCCTCACTCTATGGTACCTA
With B1, in [1], the activity was ~20 fold SCN1A.

B2: TRE reporter 9-nt site (dsDNA)
DNA 1: AGTGATAGA
DNA 2: TCTATCACT
As for B2, the activity with EGR1-based eTF, 3 ZF came to 3 fold EGFP.

B3: TRE reporter site (dsDNA)
DNA 1: AGTGATAGAGAACGTATG
DNA 2: CATACGTTCTCTATCACT
Regarding B3, the activity in the data set with ZF DBD-CITED2 is ~15 fold EGFP; with ZF DBD-CITED4, ~10 fold EGFP; in [2], 10 fold EGFP; in data set [3] it was 15 fold EGFP; with ZF DBD-VP64 it was 70 fold EGFP; in data set [4], ≥ 5 fold EGFP.

B4: SCN1A site 36 (dsDNA)
DNA 1: TAGGTACCATAGAGTGAG
DNA 2: CTCACTCTATGGTACCTA
With B4, the activity in [5] is ~7 fold SCN1A.
